# Reference: IntAct's records for PubMed 20571511
# B1: Telomere length regulation protein ELG1 (Saccharomyces cerevisiae), Q12050 (parent)
# chain: MKRHVSLSDILTGNKRKVRRQDALQITIDDENDTESGTFDARTAKHDDSSVIFLNHSVVKPIEAVSTNHKSAKEFLMTKRTKEKCDDDDDDLIVISDKSPKSETNCSKIALSQEHEDDISIISTSRIKSSLLNERASKIKNFLKHETTDTFKRLNSISKLNEIEPPLPLHQSIFPVGDKELSDRSVDIPLPFRTIPPLNHNFLPSDYESLKDKNSASCIPVRYQAPVLLGTNIKRNTTLTWPQLFKPVTLKQVLIEPKLKLRIKNWIETSFHTLEKPTLRNRLLNRINPNKQQGSGDELANFIVPDLEEDENLRPDFYRNGEANSSLSEFVPLMILHGNSIGKKTLIQTIMREIAGDDNSYQIYEVNSNMNRSKKDLLDILLDFTTTHYVKDSSKRKSDYGLVLFNDVDVLFKEHDRGYWAMISKLCEFSRRPLVLTCKDLSLVPSELIALASEQNSLFHTKKISTSTVYAFLTKYLKSLEIEVCDDWLRDVVKQNNADIRKCLMHLQFWCVDTEADLISSKNRLPVLTSTLGSSVKDISQLTDLLSINDVIGQATLNRSMVRQEIDSTTMTPEKVNTFQDQNLDDEMKLKFDYVIDYKLHLNDPNRQPLLPFELNIYQHIQEQLEARYSYVREANHRLDNEYLVNRFKKMTESTLNFLASRIPKYDHLQSARRTRNSKKISDILNQFKGIYNDETLNENAEIDLLSATTQQIKAEINPFVFEIAKSDANVKNENKQIFELHSENVSERRYKDLVYQLSQEGVLKNVWFNADPSIVVRKWEHLHSGFSKNK
# B2: Proliferating cell nuclear antigen (Saccharomyces cerevisiae), P15873 (parent)
# chain: MLEAKFEEASLFKRIIDGFKDCVQLVNFQCKEDGIIAQAVDDSRVLLVSLEIGVEAFQEYRCDHPVTLGMDLTSLSKILRCGNNTDTLTLIADNTPDSIILLFEDTKKDRIAEYSLKLMDIDADFLKIEELQYDSTLSLPSSEFSKIVRDLSQLSDSINIMITKETIKFVADGDIGSGSVIIKPFVDMEHPETSIKLEMDQPVDLTFGAKYLLDIIKGSSLSDRVGIRLSSEAPALFQFDLKSGFLQFFLAPKFNDEE
# partner: B1 chain
# Variants of: B1
# Conditions: with pcna_yeast POL30, P15873
row,effect of a mutation on the interaction,Variant
1,decreasing interaction,V58A
2,decreasing interaction,S57A

# Variants of: B1
# Conditions: with pcna_yeast POL30, P15873
# Remark: another data set of the same source
row,effect of a mutation on the interaction,Variant
1,decreasing interaction,V59A

# Variants of: B1
# Conditions: with pcna_yeast POL30, P15873
# Remark: another data set of the same source
row,effect of a mutation on the interaction,Variant
1,disrupting interaction,I28A
2,disrupting interaction,I121A
3,disrupting interaction,I93K
4,disrupting interaction,I122A

# Variants of: B1
# Conditions: with smt3_yeast SMT3, Q12306
# Chain of smt3_yeast SMT3, Q12306 (Q12306 whole entry): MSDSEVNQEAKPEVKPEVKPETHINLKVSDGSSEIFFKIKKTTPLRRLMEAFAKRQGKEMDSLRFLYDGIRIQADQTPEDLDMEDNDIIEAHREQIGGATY
row,effect of a mutation on the interaction,Variant
1,decreasing interaction,I28A
2,decreasing interaction,I121A
3,decreasing interaction,I93K
4,decreasing interaction,I122A

# Variants of: B1
# Conditions: with smt3_yeast SMT3, Q12306
# Remark: another data set of the same source
row,effect of a mutation on the interaction,Variant
1,disrupting interaction,I28A
2,disrupting interaction,I121A
3,disrupting interaction,I93K
4,disrupting interaction,I122A

# Variants of: B2
# Conditions: with elg1_yeast ELG1, Q12050
row,effect of a mutation on the interaction,Variant
1,decreasing interaction,MLEAKFEEASLFKRIIDGFKDCVQLVNFQCKEDGIIAQAVDDSRVLLVSLEIGVEAFQEYRCDHPVTLGMDLTSLSKILRCGNNTDTLTLIADNTPDSIILLFEDTKKDRIAEYSLKLMDIDADFLKIEELQYDSTLSLPSSEFSKIVRDLSQLSDSINIMITRETIKFVADGDIGSGSVIIKPFVDMEHPETSIKLEMDQPVDLTFGAKYLLDIIKGSSLSDRVGIRLSSEAPALFQFDLKSGFLQFFLAPKFNDEE [K164R]
